Reference: patent US20120045773A1, “CELL ADHESION INHIBITOR AND APPLICATIONS THEREOF” (University of Miyazaki, priority 2009, published 2012)

Tests used:
[1] = system: AML1 cell line; assay: Drug resistance assay by WST method with or without osteoblast cell in the medium; format: cell-based, human
Protocol: Effect of the presence of osteoblast cell on the drug resistance of AML1 cell line derived from human acute myelocytic leukemia (AML) was examined.
Specifically, by WST method, in which water-soluble formazan was produced, viability of AML1 cell line was evaluated under the presence of VP16 (5 μM), a kind of etoposide-based anticancer drug, between the cases of presence and absence of osteoblast cell in culture medium. It should be noted that AML1 cell line is fixed to medium plate through osteoblast cell when the osteoblast cell exists in the medium.
In addition, effect of the presence of the osteoblast cell on the drug resistance of AML1 cell line was examined, when Ara-C, a kind of anticancer drug of […] was used in place of VP16 as the anticancer drug. Specifically, the drug resistance assay was carried out by WST method using the same procedures as the above-mentioned method excepting that Ara-C (1 μg/mL) was used in place of VP16 as the anticancer drug.
Drug resistance assay by WST method was carried out by the same procedures as the above-mentioned Reference Example 5 (in the presence of Ara-C) using each of the above-established AML1 (shEVI1) cell and AML1 (shLuc) cell in place of AML1 cell line.

[2] = system: AML1 cell line; assay: Cellular adhesiveness assay of AML1 cell line on matrigel-coated 96-well plate (Cell counting kit 8); format: cell-based, human; settings: AML1(shITGB4) relative to AML1(shLuc); FIG. 8
Protocol: Cellular adhesiveness was evaluated for the above-established AML1(shEVI1) (triplicate) and AML1(shLuc).
(§1) Specifically, 100 μL of 40 times-diluted growth factor reduced matrigel (produced by BD Biosciences) with RPMI1640/10% FCS was added to each well of a 96-well plate, incubated at 4° C. for 6 hours, and washed twice with PBS. The above-mentioned cell was added to each of the wells at 10000 cells/100 μL. After that, the cell was incubated at 37° C. for 2 hours and washed three times with PBS. After that, 90 μL of RPMI1640/10% FCS and 10 μL of Cell counting kit 8 (produced by DOJINDO Laboratories) were added to each well, incubated at 37° C. for 30 minutes and measured at wavelength of 450 nm by a spectrophotometer.
Cellular adhesiveness was evaluated for the established above-mentioned AML1(shITGB4) and AML1(shLuc) by the same method as the above-mentioned Example 1-2.

[3] = system: ITGB4 gene; assay: ITGB4 gene expression by PCR in AML1 cell line transfected with shITGB4; format: cell-based, human; settings: AML1(shITGB4) compared with AML1(shLuc); FIG. 9
Source text: ITGB4 expression-inhibited AML1 cell line (hereinafter also called “AML1(shITGB4)”) was established by the transfection of shRNA having an activity of cleaving mRNA of ITGB4 gene (hereinafter also called “shITGB4”) into AML1 cell line by the same method as the above-mentioned Example 2-1. It should be noted that the base sequences of the used shITGB4 were as follows.
Further, expression of ITGB4 gene in AML1 (shITGB4) was confirmed by the same method as the above-mentioned Example 1-1. As a result, as shown in the results of PCR agarose gel electrophoresis in FIG. 9, expression of ITGB4 gene was suppressed in AML1(shITGB4) compared with AML1(shLuc).

[4] = system: EVI1 gene; assay: EVI1 gene expression by PCR and agarose gel electrophoresis in AML1 cells transduced with shEVI1; format: cell-based, human
Source text: (§2) EVI1 expression-inhibited AML1 cell line (hereinafter, also called “AML1 (shEVI1)”) was established by the transfection of shEVI1, which is a short hairpin RNA (shRNA) having cleavage activity of mRNA of EVI1 gene, into the AML1 cell line, which was originated from human acute myelocytic leukemia (AML).
Specifically, at first, shEVI1 (sense strand: […] UUG (SEQ ID No: 7) and antisense strand: […] GAGA (SEQ ID No: 8), which had been disclosed in Oncogene, 2006 Jun. 15; 25 (25): 3565-75), were inserted into pSIREN-RetroQ-ZsGreen vector of RNAi-Ready pSIREN-RetroQ-ZsGreen (produced by Clonetech Laboratories, Inc.) at BamH1-EcoR1 site to prepare a shEVI1 retrovector. […] It should be noted that as a control cell, the cell (hereinafter, also called “AML1 (shLuc)”) was established by transfecting a control vector (shLuc) attached to RNAi-Ready pSIREN-RetroQ-ZsGreen (produced by Clonetech Laboratories, Inc.) by the same method.
Each cell cultured steadily of the established above mentioned AML1(shEVI1) and AML1(shLuc) was recovered by centrifugation, the medium was removed, and 1 ml of Trizol™ (produced by Invitrogen Corp.) was added. […] The resultant RNA was dissolved in RNase-free water, the amount of RNA was measured by spectrophotometer at wavelength of 260 nm, and 1 μg of the RNA was transformed to cDNA with reverse transcriptase (superscript 3, produced by Invitrogen Corp.). […]

[5] = system: various integrin families including ITGA6 gene and ITGB4 gene; assay: Expression of integrin family and VE cadherin genes by PCR and agarose gel electrophoresis in AML1 cells transduced with shEVI1; format: cell-based, human
Source text: as §2
Specifically, at first, shEVI1 (sense strand: […] UUG (SEQ ID No: 7) and antisense strand: […] GAGA (SEQ ID No: 8), which had been disclosed in Oncogene, 2006 Jun. 15; 25 (25): 3565-75), were inserted into pSIREN-RetroQ-ZsGreen vector of RNAi-Ready pSIREN-RetroQ-ZsGreen (produced by Clonetech Laboratories, Inc.) at BamH1-EcoR1 site to prepare a shEVI1 retrovector. After that, 10 μg of the shEVI1 retrovector and 10 μg of p10A1 packaging vector (produced by Clonetech Laboratories, Inc.) were transduced to 293T cell using Hylimax liposome reagent (produced by DOJINDO Laboratories) to prepare a retrovirus containing shEVI1. After that, AML1 (shEVI1) was established by infecting the obtained retrovirus into 10^5 of AML1 cells. It should be noted that as a control cell, the cell (hereinafter, also called “AML1 (shLuc)”) was established by transfecting a control vector (shLuc) attached to RNAi-Ready pSIREN-RetroQ-ZsGreen (produced by Clonetech Laboratories, Inc.) by the same method.
Each cell cultured steadily of the established above mentioned AML1(shEVI1) and AML1(shLuc) was recovered by centrifugation, the medium was removed, and 1 ml of Trizol™ (produced by Invitrogen Corp.) was added. After that, 500 μL of chloroform was added, separated by centrifugation at 15000 rpm for 15 minutes, the upper layer was transferred to another tube, 500 μL of 2-propanol was added, separated by centrifugation at 15000 rpm for 10 minutes, and washed with 80% ethanol. The resultant RNA was dissolved in RNase-free water, the amount of RNA was measured by spectrophotometer at wavelength of 260 nm, and 1 μg of the RNA was transformed to cDNA with reverse transcriptase (superscript 3, produced by Invitrogen Corp.).
Using each of the resultant cDNA as a template, the cDNA was amplified by PCR method, and expression level of the genes was confirmed by agarose gel electrophoresis. Specifically, TaKaRa Extaq (produced by TaKaRaBio Inc.) was used as the polymerase, and PCR Thermal Cycler DICE (produced by TaKaRa Bio Inc.) was used as the PCR equipment. In addition, each cDNA was corrected by β-actin before the amplification by PCR. Base sequences of the primers used in the PCR were as follows;
The ones disclosed in Journal of Biomedical Science (2005)12:803-813.

[6] = system: EVI1 gene; assay: EVI1 gene expression by PCR in HNT34 cell line transfected with shEVI1; format: cell-based, human; settings: HNT34(shEVI1) vs HNT34(shLuc); transfection with Nucleofector; FIG. 5
Source text: (§3) EVI1 expression-inhibited HNT34 cell line (hereinafter, also called “HNT34(shEVI1)”) was established by the transfection of shEVI1, which was used in the above-mentioned Example 1-1, using Nucleofector (produced by Amaxa Biosystems), a gene transfection system, into HNT34 cell line derived from human. In the same way, the cell line transfected with shLuc (hereinafter, also called “HNT34 (shLuc)”) was established. For these cell lines, expression of EVI1 gene and genes of various integrin families were confirmed by the same method as in the Example 1.

[7] = system: genes of various integrin families; assay: Expression of integrin family genes by PCR in HNT34 cell line transfected with shEVI1; format: cell-based, human; settings: HNT34(shEVI1) vs HNT34(shLuc); transfection with Nucleofector; FIG. 5
Source text: as §3

[8] = system: HNT34 cell line; assay: Cellular adhesiveness assay of HNT34 cell line; format: cell-based, human; settings: HNT34(shEVI1) compared with HNT34(shLuc); FIG. 6
Protocol: as §1
The cellular adhesiveness was evaluated for the above-mentioned established HNT34(shEVI1) and HNT34(shLuc) by the same method as the above-mentioned Example 1-2.

[9] = system: HNT34 cell line; assay: Cellular proliferative ability assay of HNT34 cell line (Cell counting kit 8); format: cell-based, human; settings: HNT34(shEVI1) vs HNT34(shLuc) control cell line; FIG. 7
Protocol: Cellular proliferative ability was evaluated for the above-mentioned established HNT34(shEVI1) and HNT34(shLuc).
Specifically, cells diluted with RPMI1640/10% FCS were added to each well of a 96-well plate at 1000 cells/100 μL. After that, the cell suspension was incubated at 37° C. for an appropriate time, each 10 μL of Cell counting kit 8 (produced by DOJINDO Laboratories) was added, incubated at 37° C. for 30 minutes, and measurement was carried out at wavelength of 450 nm using a spectrophotometer.

[10] = system: AML1 cell; assay: Accumulation of AML1 cells in thighbone bone marrow of transplanted NOG mouse (FACS); format: in vivo; settings: 6 million AML1(shEVI1) cells injected into NOG mouse, bone marrow recovered 1 month after, control AML1(shLuc) printed as (330), FIG. 25
Protocol: The above-established AML1(shEVI1) cell was transplanted into NOG Mouse™, and accumulation of the AML1(shEVI1) cell into the murine thighbone was examined after the transplantation. Here, NOG mouse is a severe immunodeficient mouse suitable for the preparation of humanized model mouse that is available from the Central Institute for Experimental Animals.
Specifically, 6 million of each of the AML1 (shLuc) cell and the AML1 (shEVI1) cell was injected into NOG mouse through venous artery, and bone marrow of the thighbone was recovered 1 month after. After that, a graph representing the fluorescence intensity in the horizontal axis was prepared by FACS, and analysis was made how frequently cells were distributed from low intensity (peak near to 0) to high fluorescence intensity.

[11] = AML1(shEVI1) compared with AML1(shLuc), FIG. 1
[12] = triplicated experiment for AML1(shEVI1), AML1 cell not administered with shLuc or shEVI1 added as a control, FIG. 2

Molecule: COc1cc([C@@H]2c3cc4c(cc3[C@@H](O[C@@H]3O[C@@H]5CO[C@@H](C)O[C@H]5[C@H](O)[C@H]3O)[C@H]3COC(=O)[C@H]23)OCO4)cc(OC)c1O [VP16]
- viability of AML1 cell line in the presence of the drug, osteoblast cell in the medium compared with none ([1]; VP16 (5 μM), FIG. 18): increase significantly

Molecule: Nc1ccn([C@@H]2O[C@H](CO)[C@@H](O)[C@@H]2O)c(=O)n1 [Ara-C]
- viability of AML1 cell line in the presence of the drug, osteoblast cell in the medium compared with none ([1]; Ara-C (1 μg/mL), FIG. 19): increase significantly

B1: shITGB4: shRNA having an activity of cleaving mRNA of ITGB4 gene; SEQ ID No: 13 and SEQ ID No: 14 (nucleic acid)
chain 1: GAUCUCCGAGUUGCGUGGGGUGUGUCUUCAAGAGAGACACACUCCGUGCAGCUCUUUUUG
chain 2: AAUUCAAAAAGAGCUGCACGGAGUGUGUCUCUCUUGAAGACACACCCCACGCAACUCGGA
- cellular adhesiveness (ratio of the number of adhered cells to the number of total cells) [2]: decrease nearly to zero
- expression of ITGB4 gene [3]: suppressed

B2: shEVI1: short hairpin RNA (shRNA) having cleavage activity of mRNA of EVI1 gene; SEQ ID No: 7 and SEQ ID No: 8 (nucleic acid)
chain 1: GAUCUCUCUAAGGCUGAACUAGCAGUUCAAGAGACUGCUAGUUCAGCCUUAGAUUUUUUG
chain 2: AAUUCAAAAAAUCUAAGGCUGAACUAGCAGUCUCUUGAACUGCUAGUUCAGCCUUAGAGA
- EVI1 gene expression [4, 11]: inhibited
- EVI1 gene expression [4, 12]: inhibition
- expression of VE cadoherin gene [5, 11]: inhibited
- gene expressions of various integrin families including ITGA6 gene and ITGB4 gene [5, 11]: inhibition
- expression of VE cadherin genes [5, 12]: inhibition
- expression of various integrin families [5, 12]: inhibition
- expression of the EVI1 gene [6]: inhibited
- expression of genes of various integrin families [7]: inhibited
- decrease of cellular adhesiveness (ratio of the number of adhered cells to the number of total cells) [8]: about 76%
- cellular proliferation ability [9]: no significant difference
- drug resistance to Ara-C gained by the existence of osteoblast ([1]; AML1(shEVI1) vs AML1(shLuc), in the presence of Ara-C, FIG. 20): disappeared
- abundance rate of transplanted cells in bone marrow of the thighbone [10]: 9.5%
